Tested on: MS2 coat protein
Experiment: apparent KD of MS2 coat protein; higher = weaker reporter binding
Details: Eterna round: R107
In short: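 In 100 mM Tris-HCl pH 7.5 with 80 mM KCl and 4 mM MgCl2, and without or with constant ligand, SNAP-549-labelled MS2 coat protein was titrated in twofold steps from 0.7 or 1.5 nM to 3 µM. Per-step times went from 0.8–1.5 h down to 10–20 min. The RNA switches were transcribed on-chip from Illumina sequencing clusters, and apparent KD is the per-design median of normalised cluster binding-curve fits.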

[1] = input ligand: theophylline 20 uM
[2] = input ligand: theophylline 2 mM
[3] = input ligand: tryptophan 2.4 mM

| Sequence | apparent KD of MS2 coat protein (input ligand: arginine 13.2 mM) [nM] | apparent KD of MS2 coat protein (input ligand: none) [nM] | apparent KD of MS2 coat protein [1] [nM] | apparent KD of MS2 coat protein [2] [nM] | apparent KD of MS2 coat protein [3] [nM] |
| --- | --- | --- | --- | --- | --- |
| CUCCCGUGGUCGGCCGCCACUGGAGGCCUUGCGCGACAUGAGGAUCACCCAUGUGGGCCCGGCGUCAGGACCGGGAUCGCGUGAG [#1 Same State - Tryptophan B Attempt #11 (HarryS)] | 11.5 | 16.1 | 20.2 | 16.2 | 15.6 |
| CUCCUGGGAGCGGCCGCCACUGGAGGCCUCGCGCGACAUGAGGAUCACCCAUGUUGGCCCGGCCUCAGGACCGGGUUCGCGCGAG [Same State - Tryptophan B Attempt #3] | 8.01 | 12.9 | 17.9 | 10.6 | 10 |
| CUCCUGGGAGCGGCCGCCACUGGAGGCCUUGCGCGACAUGAGGAUCACCCAUGUUGGCCCGGCCUCAGGACCGGGUUCGCGCGAG [Same State - Tryptophan B Attempt #2] | 12.3 | 11.3 | 12.3 | 9.73 | 10.1 |
| CUCCUGUGAGCGGCCGCCACUGGAGGCCUCGCGCGACAUGAGGAUCACCCAUGUUGGCCCGGCCUCAGGACCGGGUUCGCGCGAG [Same State - Tryptophan B Attempt #4 (HarryS)] | 7.89 | 11.1 | 15.4 | 10.7 | 10.9 |
| CUCGAGUUAUGAGAUACCAGACUAUAGUUUACAUGAGGAUCACCCAUGUUAUGGGUGGUGGUCCCUUGGCAGCUCAUAUGUUUAA [#08 Exclusion-TheophyllineB] | 105 |  | 220 |  | 85.1 |
| CUCUCAUGAACAUGAGGAUCACCCAUGUAACGAGGACCGGUACGGCCGCCACUCGAACGUGGAUACCAAUCGAGUGGGUGAGAGA [Tryp A Ex t5] | 31 | 21.5 | 25.2 | 23.8 | 80.1 |
| CUGCCAUGCAGAGAUACCAGUGCGCUCAGCACAUGAGGAUCACCCAUGUCGGCUGCCGAUCACCCUUGGCAGCUCUGCAUGGCAG [?@#$_] | 12 |  | 13 |  | 11.3 |
| CUGGACAUGAGGAUCACCCAUGUAAAUCCUCGAGGACCGGUACGGCCGCCACUCGAACGAGUGGCACGCGAGUGCGCACUCGCGU [aLa] | 26.9 | 29.8 | 45.6 | 36.2 | 33 |
| CUGGACAUGAGGAUCACCCAUGUAAAUCCUCGAGGACCGGUACGGCCGCCACUCGAACGAGUGGCGCGCGAGCGCGCGCUCGCGC [aJa] | 41.4 | 43.3 | 80.3 | 62.5 | 45.5 |
| CUGUGUCCUUCGGCCGCCACUACAUGAGGAUCACCCAUGUCGUUACGGCUCCCAAUGACGCUUUGUAGGACCGGGAAGGAGUAUG [Tienancebe] | 9.27 |  | 15.9 | 10.9 |  |
| CUUCAACAUGAGGAUCACCCAUGUAGUGAUACCAGUCACUCAUACGACCCUUGGCAGCACAUUUUCUGUCGGCAUGUAGACGAUC [theeternabot_sameState_MS2_Theo_A_33] | 73.6 |  | 172 |  | 173 |
| CUUGGUAGAUCCUAGCUGCCAAGAGGUGAUACCAGCAUCGAAAGAUGCCCUUGGCAGCACCAACAUGAGGAUCACCCAUGUAAUA [(MT)''-(M)'-(T')-(Theo)-(Ms2)_Design1/22_4] | 24.3 |  | 178 |  | 77.4 |
| CUUGUCGUAACUGAUACCAGUGUACUGACAUGAGGAUCACCCAUGUUGGGUUUUGUUGUACACCCUUGGCAGCAGAAUCGAUAAG [AstrosExyTheB#9] | 68.8 |  | 95.3 |  | 71.3 |
| CUUGUGGUCGGAAGGAGCGCGAUUACAUAACAUGAGGAUCACCCAUGUAAGAAAUUAUUCAUGCAGGUAGGUCGCCGGUCGUGGG [Same State Arginine B GF10] | 22 | 21.4 | 29.6 | 22.6 | 21.8 |
| CUUGUUUGUGGAAGGAGCGCGAUUACAUAACAUGAGGAUCACCCAUGUAAGAAAUUAUUCAUGCAGGUAGGUCGCCAUUGGUGGG [Same State Arginine B GF8] | 64.1 | 62.2 | 53.1 | 23.7 | 30.6 |
| GAACAUAAGGAUAGUAUAAUAACUACAGAAGGAGCGUCAGGAAGGACAGGUAGGUCGCUGGAAGACAUGAGGAUCACCCAUGUUU [#03 Same State - Arginine A] | 20.6 | 21.4 | 28.8 | 21.1 | 17.1 |
| GAACAUAAGGAUAGUAUAAUGACUACAGAAGGAGCGUCAGGAAGGACAGGUAGGUCGCUGGAAGACAUGAGGAUCACCCAUGUUU [Arg A SS t2] | 25.6 | 22.8 | 35.3 | 24.5 | 19.4 |
| GAAGAGACCUCGGCCGCCACUCGCCAUGAGGAUCUCCCAUGUAACAUGAGGAUCACCCAUGUACAGAGGACCGGGAGGUCCUAGU [Same State Tryptophan B GF 14] | 12.8 | 21.2 | 39.1 | 24.8 | 50.1 |

| Sequence | apparent KD of MS2 coat protein (input ligand: arginine 13.2 mM) [nM] | apparent KD of MS2 coat protein (input ligand: none) [nM] | apparent KD of MS2 coat protein [1] [nM] | apparent KD of MS2 coat protein [2] [nM] | apparent KD of MS2 coat protein [3] [nM] |
| --- | --- | --- | --- | --- | --- |
| GAAUAUUACAUGAGGAUCACCCAUGUAGAUACCAGCCUUGAUUGUGGCCCUUGGCAGCUACGCCGUGAAUGCCUCAGUUGCUUAC [Atidi] | 36.8 |  | 121 |  | 72 |
| GAAUUUUAUUGAAGGAGCGUCGAAAAUGGGUAAACAUGAGGAUCACCCAUGUAAAGGGAACGACAGGUAGGUCGCAAUAGGAUUC [AstromonsSSArgB#28] | 140 | 177 | 188 | 247 | 151 |
| GACAUGAGGAUCACCCAUGUACCGCGAGAAGGAGCGCGGAUAAACGCAGGUAGGUCGCUCGUGGGCUCACAUUCAAUCGUAAGCU [Azaesisma] | 50.9 | 98.6 | 116 | 165 | 77.7 |
| GACAUGAGGAUCACCCAUGUGUAACCAGAAGGAGCGUGCGAAAGCACAGGUAGGUCGCUGGUGGGUUUAGGUUUAGUAGGUGUUC [SSAA NP+V+V2 #3] | 87.6 | 69.2 | 100 | 139 | 56.4 |
| GACAUGAGGAUCACCCAUGUUUGCUAUGAAGGAGCGUCGGAAAUGACAGGUAGGUCGCAUAGUAGGCCUUGUAUUUUGUGUGUUU [EAA #8] | 11.4 | 10.1 | 14.4 | 10.8 | 10.5 |
| GACGCAUGAGUUGGAACAGCUCAUGGGUCGCGAGGACCGGUACGGCCGCCACUCGGCUGUACAUGAGGAUCACCCAUGUCAGGGU [#1 Same State - Tryptophan A Attempt #30 (HarryS)] | 72.7 |  | 329 | 942 |  |
| GAGACGUCGGGAAGGAGCGCAUCAAAACCACACAUGAGGAUCACCCAUGUAUAAAUAUGCAUGCAGGUAGGUCGCCCGGUGUCCA [SS-ArgB16] | 24.2 | 27.1 | 33.6 | 33.1 | 29.1 |
| GAGCGCAGUUUACAACAUACUAACACAGAUACCAGAAAUUUUAUGUUCCCUUGGCAGCUGACAACAUGAGGAUCACCCAUGUGCU [theeternabot_exclusion_MS2_Theo_A_27] | 17.5 |  | 21.2 |  | 15.7 |
| GAGCUGAUGUAGGGUGGAUAUCCUUGAGAUACCAGUACAGAAAUGUACCCUUGGCAGCUCUUCCUUACAUGAGGAUCACCCAUGU [Ex Theophylline A 25] | 18.9 |  | 23.5 |  | 20.4 |
| GAGUAGAAGACGGCCGCCACUAAACAUGAGGAUCACCCAUGUCGUGAUCCGUUACCUAGAGUAGAUAGGACCGGGUCAUAUAGUC [Exclusion Tryptophan B GF 15] | 27.5 |  | 41.5 | 30.2 |  |
| GAGUUCCUGAGAGAUACCAGUGAAGCCACAUGAGGAUCACCCAUGUCCCUCACUCCGGCCCACCCUUGGCAGCUCGAAAGAUGGA [Exclusion Theophylline B GF 21] | 83.7 | 105 | 132 | 403 | 141 |
| GAGUUCCUGAGAGAUACCAGUGAGGCCACAUGAGGAUCACCCAUGUCCCUCACUCCGGCCCACCCUUGGCAGCUCGAAAGAUAUU [Exclusion Theophylline B GF 22] | 11.3 |  | 16.7 |  | 12.1 |
| GAUACCAUGAUCCUCCUGGUAUCGGCUGAUACCAGCCAGCUGACUGGCCCUUGGCAGCAGCAUACAUGAGGAUCACCCAUGUUAA [(T)''-(M)'-(T)'-(Theo)-(Ms2)_Design4] | 35.4 |  | 163 |  | 61 |
| GAUAGUUGAUGGGAUACCAGCCUACACAUGAGGAUCACCCAUGUGAUUCGUGUACGACUGGGCCCUUGGCAGCCCAUAUUGUGUA [#12 Same State - Theophylline B] | 46.1 |  | 202 |  | 128 |
| GAUAUACGUGCGGCCGCCACUGAGUGGCGGGCGUGUCGAGUUACAUGAGGAUCACCCAUGUCACUCAGGACCGGGCACGGAAUUU [Soveri] | 7.64 |  | 14.1 | 11 |  |
| GAUAUAUAACGAAGGAGCGGCCCUUGAUCCUCAUGAGACAUGAGGAUCACCCAUGUCUCGGGCCAGGUAGGUCGCGUUAUAUAUC [Astros-omei-mod] | 26.6 | 21.5 | 31.4 | 27.9 | 24.4 |
| GAUAUGAUAAGAAGGAGCGUCGAAAAUGGGUAAACAUGAGGAUCACCCAUGUAAAGGGAACGACAGGUAGGUCGCUUAUUAUAUC [AstromonsSSArgB#19] | 146 | 160 | 190 | 251 | 134 |

Source: the supplement of paper PMC9170038
